How the values were obtained:
SARS-CoV-2野生株假病毒 (刺突蛋白) = SARS-CoV-2野生株假病毒 (刺突蛋白) (SARS-CoV-2, UniProt P0DTC2 14-1273); assay: cell-based or functional assay
[1] = molecular target: 重组RBD蛋白 (SARS-CoV-2 RBD蛋白) (SARS-CoV-2, UniProt P0DTC2 331-524)

| Binder | 假病毒中和活性IC50 (SARS-CoV-2野生株假病毒 (刺突蛋白)) [ng/mL] | EC50 [1] [µg/mL] |
| --- | --- | --- |
| 单克隆抗体9D4 (antibody, V domains shown) VH: QVHLQQSGPELVKPGASVKISCKSSGYALTDYYINWVKQRPGQGLEWIGWIFPGNDYTYFNEKFKDKATLTLDKSSRTAYMLLSSLTTEDSAVYFCARYGDGNYVYFDYWGQGTSLTVSS VL: ETVLIQSPALMAASPGEKVTITCSVSSSISSSNLHWYQQKSGNSPKPWIYGTSNLASGVPVRFSGSGSGTSYSLTISSMEAEDAATYYCQQWSSYPLTFGAGTKLELK | 112 | 0.0242 |
| 单克隆抗体8H9 (antibody, V domains shown) VH: QIQLVQSGPELKKPGETVKISCKASGYTFTTYGMSWVKQTPGKGLKWMGWINTYSGVPTYADDFKGRFAFSLETSASTASLQINNLKNEDTATYFCARYDPTAPDYAMDYWGQGTSVTVSS VL: NIVMTQSPKSMSMSVGERVTLSCKASENVGTYVSWYQQKPEQSPKLLIYGASNRYTGVPDRFTGSGSATDFTLTISSVQAEDLADYHCGQSYIYPLTFGAGTNLELK | 33 | 0.0251 |

From patent CN114790240A (UNIV ZHENGZHOU; UNIV HENAN AGRICULTURAL, dated 2022)
